From article PMC10620215

Molecular target: EcbAgaN (Escherichia coli long-B pAgo-associated nuclease), N-terminal 6xHis tag (Escherichia coli)
Experiment: SEC-MALS; EcbAgaN, already purified by SEC, loaded onto Superdex 200 10/300 GL in 20 mM Tris-HCl pH 7.5, 250 mM NaCl, 0.5 mL/min; BSA monomer as standard

- stoichiometry N: 2
Substance: EcbAgaN (Escherichia coli long-B pAgo-associated nuclease), N-terminal 6xHis tag (enzyme)
